B1: Nova-5097: parent cMET mAb; sequences in Table 1 (antibody, V domains shown)
VH: QVQLVQSGAEVKKPGSSVKVSCKASGGTFSSYAISWVRQAPGQGLEWMGGIDPFGTANYAQKFQGRVTITADESTSTAYMELSSLRSEDTAVYYCARVYQDVWGQGTLVTVSS
VL: DIVMTQSPDSLAVSLGERATINCRSSQSILYGINNNFLGWYQQKPGQPPKLLIYWASTRESGVPDRFSGSGSGTDFTLTISSLQAEDVAVYYCQQYAFGWTFGQGTKVEIK
B2: Nova-5098: parent cMET mAb; sequences in Table 1 (antibody, V domains shown)
VH: B1 VH
VL: DIVMTQSPDSLAVSLGERATINCRSSQSILYGINNNFLGWYQQKPGQPPKLLIYWASTRESGVPDRFSGSGSGTDFTLTISSLQAEDVAVYYCLQYSDEPWTFGQGTKVEIK
B3: Nova-5185: parent cMET mAb; sequences in Table 1 (antibody, V domains shown)
VH: B1 VH with F54I, G55M, T56G, A57T, N58E
VL: B2 VL with L94Q, S97A, D98Y, W101N
B4: ABF-46: parent cMET mAb, mouse antibody; sequences in Table 1 (antibody, V domains shown)
VH: EVKLVESGGGLVQPGGSLRLSCATSGFTFTDYYMSWVRQPPGKALEWLGFIRNKANGYTTEYSASVKGRFTISRDNSQSILYLQMDTLRAEDSATYYCARDNWFAYWGQGTLVTVSA
VL: DILMTQSPSSLTVSAGEKVTMSCKSSQSLLASGNQNNYLAWHQQKPGRSPKMLIIWASTRVSGVPDRFIGSGSGTDFTLTINSVQAEDLAVYYCQQSYSAPLTFGAGTKLELK
B5: Onartuzumab: parent cMET mAb; sequences in Table 1 (antibody, V domains shown)
VH: EVQLVESGGGLVQPGGSLRLSCAASGYTFTSYWLHWVRQAPGKGLEWVGMIDPSNSDTRFNPNFKDRFTISADTSKNTAYLQMNSLRAEDTAVYYCATYRSYVTPLDYWGQGTLVTVSS
VL: DIQMTQSPSSLSASVGDRVTITCKSSQSLLYTSSQKNYLAWYQQKPGKAPKLLIYWASTRESGVPSRFSGSGSGTDFTLTISSLQPEDFATYYCQQYYAYPWTFGQGTKVEIK
B6: Nova-5091: parent cMET mAb; sequences in Table 1 (antibody, V domains shown)
VH: QVQLVQSGAEVKKPGASVKVSCKASGYTFTGYYMNWVRQAPGQGLEWMGIINPWTGNTNYAQKFQGRVTMTRDTSISTAYMELSSLRSEDTAVYYCARDPGFFYYTPSDLWGQGTLVTVSS
VL: DIELTQPPSVSVAPGQTARISCSGDSIGNKYVHWYQQKPGQAPVLVIYADSDRPSGIPERFSGSNSGNTATLTISGTQAEDEADYYCQSYAHYHDIWVFGGGTKLTVLG

Residue numbers refer to the chain shown, from its start.

This assay deals with EGFR and cMET co-expressed tumor cell lines (A431, A549, MDA-MB-468, MKN-45, NCI-H441, NCI-H1975). Nature of the assay: Binding activity of parent mAbs by flow cytometry. The following applies: flow cytometry on tumor cell lines, FIGS. 1A-1F, Table 4; compared with telisotuzumab (teliso). The method, then:
EGFR and cMET co-expressed tumor cell lines including A431 (ATCC® CRL-1555), A549 (ATCC® CCL-185, Provided by Procell), MDA-MB-468 (ATCC® HTB-132, Provided by Procell), MKN-45 (CL-0292, Provided by Procell), NCI-H441 (ATCC® HTB-174, Provided by COBIOER), NCI-H1975 (ATCC® CRL-5908, Provided by Procell) were selected for evaluating antibody binding activity by flow cytometry.
A431 was cultured with DMEM medium (Gibco, Cat #C11995500BT) containing 10% FBS. MDA-MB-468, MKN-45, NCI-H441 and NCI-H1975 were cultured with RPMI 1640 medium (Gibco, Cat #11875093) containing 10% FBS. A549 was cultured with F12K medium (Gibco, Cat #21127030) containing 10% FBS. Each antibody was incubated with different cell lines (1×10^5 cells/well) for 30 min in 0.2 mL FACS buffer (1×PBS with 0.1% BSA) at 4° C. After wash, cells were incubated with 100 μL PE-conjugated anti human Fc (Abcam, Ab98596, 1:500 dilution) for 30 min at 4° C. After wash with PBS, cells were resuspended in FACS buffer and analyzed by flow cytometer (Beckman, CytoFLEX).
On the technique in general: In flow cytometry, cells or beads pass a laser one at a time.
As to B1, the “binding activity of parent cMET mAbs (summary)” value is given as “Stronger binding than teliso, no clinical validation”.
The result for B2 reads “Stronger binding than teliso, no clinical validation”.
To B3 belongs “Stronger binding than teliso, seems to have off-target binding”; to B4, “Lower activity than teliso, mouse antibody, filed in 2010; inferior choice”; to B5, “Stronger binding than teliso, tumor promoting activity due to bivalent binding”.
To B6 belongs “No binding activity”.

The values are drawn from patent publication US20250381289A1, “EGFR AND C-MET BISPECIFIC BINDING AGENTS, CONJUGATES THEREOF AND METHODS OF USING THE SAME” (GENMAB A/S, priority 2024, published 2025).
